According to article PMC3947336:

What was measured:
[1] = molecular target: Bxz2 Int (mycobacteriophage Bxz2 serine-integrase, gene 34) (mycobacteriophage Bxz2); assay: native gel or EMSA
[2] = molecular target: Bxz2 MBP-Int fusion protein (mycobacteriophage Bxz2); assay: native gel or EMSA

Substance | stoichiometry N [1] | stoichiometry N [2]
Bxz2 Int (mycobacteriophage Bxz2 serine-integrase, gene 34) (enzyme) | 2 | 
Bxz2 MBP-Int fusion protein (enzyme) |  | 2
